Test results from the DeepSol protein solubility set.

Assay: soluble on expression in E. coli; label from the status in PepcDB or PDB records

| Sequence | soluble on expression in E. coli |
| --- | --- |
| MSLENIMTLPKIKQVRAWFTGGATAEKGAGGGDYHDQGANHWIDDHIATPMSKYRDYEQLRQSFGINVLGTLVVEVEAENGQTGFAVSTAGEMGCFIVEKHLNRFIEGKCVSDIKLIHDQMLNATLYYSGSGGLVMNTISCVDLALWDLFGKVVGLPVYKLLGGAVRDEIQFYATGARPDLAKEMGFIGGKMPTHWGPHDGDAGIRKDAAMVADMREKCGEDFWLMLDCWMSQDVNYATKLAHACAPYNLKWIEECLPPQQYEGYRELKRNAPVGMMVTSGEHHGTLQSFRTLSETGIDIMQPDVGWCGGLTTLVEIAAIAKSRGQLVVPHGSSVYSHHAVITFTNTPFSEFLMTSPDCSTMRPQFDPILLNEPVPVNGRIHKSVLDKPGFGVELNRDCNLKRPYSHEGHHHHHH | soluble |
| MARVVVLGAGIGGLPTAYELKHRLGDRHEVILVSDVDRFTFIPGLVAVALGHNSLERLQVPLETVSRRHGLRWVQGKVQRLAPQEKKIYLPEQALDYDYLVIATGAELAVDLIPGLGIHSHSVCTPAHAVAAQRAWQEFLKEPRDLVVGAAPGASCFGPAYEFLFLAEHALRHHGLRDRVKITFITPEPYVGHLGIGGLANSDQLTRNLIEKRGIETITNAEITAIEPHRILLRDRPVIPFGYSMILPPFRGVPFVRASGLGNEKGFLPLLPTLQHPNYPEIYGVGISVHLPPLEVTPVPVGVPKTGQMTEEMAIAASHNIAVALGELVADPVVPTLDALCFADFGNTGIAYIAAPVIPEPPGENRRLACALQGLWVSWVKAAFERYFLLKMRWGLGVPWFEQWGLRLFFGLSLVRPLQPTVFPEQQPIMKVLEHHHHHH | not soluble |
| RYSHSLGVYELLRRILNTPAFAPIDENKKQTVLVAGLLHDIGHAPHSHAFEIYFAKAPNFKKELFIHEEVTTLFVNSEPIKSILKANQIDPKLVAALIDENKELKPSNYWMRQLISSDLDADRMDYLLRD | not soluble |
| KRRIRQLELQVRMLEADKERLERELSRLRSEMSRLRQPPAFAGSVIEVLDDDRAIVQNYNGPRFVVRIAPWIDKSKLRPGTRVALDQRTMAIIEILPASKDPAVLGFEVVERPN | not soluble |
| MIGLITTLYFVAKTAFIKLKVAVYKDKAKGSGNKNTIVIYSEGKRYWNVFLPICNEFEEHQKELVFYTSSEDDPVFEQHYTYVKPEYIGKGNKAFARLNMLEADICLMTTPGLDVYQLKRSKHVRHYSHILHALDDATSYRLFGLDYFDSVLLSGEYQVKGIRELESLRNLPPKNLRVVGCPYLDVLSEKIKNLPEKSSDFTVLIAPSWGASGILSKYGEQLITPLVETGWNIIIRPHPQSKTSEPDMLKRLEGKYKDVANFVWDYNSENIDSLSKADIMISDFSSVIFDYCFLFDKPFLYCNNEFDHRPYDSGDLKETPWKFSVLKEIGVELNSNSFDHIKEIISEACKSETLKENRLKAKDTAWQNRGCAGKAVYDFLTEIKTI | not soluble |
| MDMYSMKISEGVERIDGVTANSYLLTLDGKNILIDTGTAGGGKKIIDYFNKNGTKPDYVIVTHHHADHVGGLKEISERFNPEIYVPDLEMKIIRGEEDPPKPRSFFGRMITGMLKFEPVKDVKPVSKASIPGIEEMATPGHTIGSTSYIVEDLHILFSGDAAVESGGELKINKSFSYEINSAERSLEIIKGMKGYLVLPGHGDKVQLLEHHHHHH | soluble |
| MLTLYTSPSCTSCRKARAWLQEHEIPFKERNIFSEPLNIEELKAILIMTEDGTEEIISTRSKVFQKLNMDLDELPLQDLLELVQENPGLLRRPIMIDEKRLQVGFNEDEIRRFLPRDVRQLELRQAQLMAGL | soluble |
| MNYTKFDVKNWVRREHFEFYRHRLPCGFSLTSKIDITTLKKSLDDSAYKFYPVMIYLIAQAVNQFDELRMAIKDDELIVWDSVDPCFTVFHQETETFSALSCPYSSDIDQFMVNYLSVMERYKSDTKLFPQGVTPENHLFISALPWVNFDSFNLNVANFTDFFAPVITMAKYQQEGDRLLLPLSVQVHHAVCDGFHVARFINRLQELCNSKLK | soluble |
| MSLSKQISNLNSSSNKPKILSLFSGCGGLDLGFHQAGCETVWANDFSHWACESFRKNIGDVIVEGDIEQINPNDPTIPDCDIILGGFPCQDFSMIWKQPGLEGERGNLYKSFLRFVNAKKPKVFVAENVKGLLTANKKKAIQQIITDFENCGYYVQAKLYNFAEFGVPQFRERVLIVGVRLDTGFDFRHPEPTHNETGENGLKPYVTAGQAISNIPQNASNNELLKISDKTRRMLELIPEGGNFTDIPKDHPLYVKGMISHVYRRMHRNEPSKTIIAAGGGGTWGYHFPEPRAFTNRERARLQSFPDDFEFVGSTTEVRRQIGNAVPPQGVVELAKSILPIFSDNYEKVDLHEKLVEEKEILFHDRLSKIRGGKEGHHHHHH | soluble |
| MGSDKIHHHHHHMSESAIADFVSSFIPDTATHVEPVRGRVVMSKRRIVLAADDEKTTIPLNGVFDVQHETAPGDLARFFEDTVTIAYEHDEDRHVAVIEGGGSTVDRFVTLVFKALVHGTTVYAKHPARRGGRITDQPFEKGNLALSPGDLTITGDADTTIDLSTVSHFERVDREVNGSNKQLLSVRHMGSTGPITTELALSSGRKMNLLGRYIRLQYTHLKQELADVTLTSEEIEALVAIYSSGPNASLAAVLGVDASRVTMLLNDLIEKELVTDDDGIALTSLGRAAVSEHIEDVNL | not soluble |
| MLFRVRSETDSQPPFACLNDIKLFDTDNIGRGINAAILNGTTGDIIEKATFDVTASDEKLMTWLLKVPHASLLVAASFGDVAEHVSRQSRQLFAAFGAQKIDNWRVGNAYAIIGQRGIRRGEAHETVAKFLEENTQQKLFEGCFDLPIAEIGGEVELKIDGPPVHRADESKLAELGAFEADLLQQNKDVEYGGKWKNCGMDRPCNEADTIPVHFFSGEHKDDHPKMCIGGRMLFDKDLNSAGRGLNLAMLEPKTGKVTAVAHFDTYEDESHGLEEWLDAVPTGYIVAVVSFDEASNQLSDMARRIFYEMGSSMIDRLKFRASWYFVGQKGIGAYTPFEDLNIPQGNNWANPIHTSFCLPKSLHKWAGRRDTSSSMTSSASNDVRNLPKRHFCAKYDRHEEFCGAANLDSPIMPRHLSDEQRSSDAIFNVPILVASGLAPDSLRITLESLLNQEGLNTQMVLVTYDKEYSENADLVSLFHVKSVAIQSNGSYNGRKTSWKSEEIAENPMKIDRKPPGGLGNQKFVFLGHQFF | not soluble |
| MHLDRQSLEKAKHLIQSGLIDTIEVGTIKGLQEIHRFLFEGLYEFAGKIRDKNIAKGNFRFANCLYLDLILPRIESMPQNNFNQIVEKYVEMNIAHPFLEGNGRATRIWLDLLLKKELKKIVLWDRIDKAAYLSAMERSPVNDLEIKTLLKKHLSSNTNDPLTLIKGITQSYYYEGL | soluble |
| MGSDKIHHHHHHMAAVGPRTGPGTGAEALALAAELQGEATCSICLELFREPVSVECGHSFCRACIGRCWERPGAGSVGAATRAPPFPLPCPQCREPARPSQLRPNRQLAAVATLLRRFSLPAAAPGEHGSQAAAARAAAARCGQHGEPFKLYCQDDGRAICVVCDRAREHREHAVLPLDEAVQEAKELLESRLRVLKKELEDCEVFRSTEKKESKELLKQMAAEQEKVGAEFQALRAFLVEQEGRLLGRLEELSREVAQKQNENLAQLGVEITQLSKLSSQIQETAQKPDLDFLQEFKSTLSR | not soluble |
| MGSDKIHHHHHHMSKLLMIGTGPVAIQLANICYLKSDYEIDMVGRASTSEKSKRLYQAYKKEKQFEVKIQNEAHQHLEGKFEINRLYKDVKNVKGEYETVVMACTADAYYDTLQQLSLETLQSVKHVILISPTFGSQMIVEQFMSKFSQDIEVISFSTYLGDTRIVDKEAPNHVLTTGVKKKLYMGSTHSNSTMCQRISALAEQLKIQLEVVESPLHAETRNSSLYVHPPLFMNDFSLKAIFEGTDVPVYVYKLFPEGPITMTLIREMRLMWKEMMAILQAFRVPSVNLLQFMVKENYPVRPETLDEGDIEHFEILPDILQEYLLYVRYTAILIDPFSQPDENGHYFDFSAVPFKQVYKNEQDVVQIPRMPSEDYYRTAMIQHIGKMLGIKTPMIDQFLTRYEASCQAYKDMHQDQQLSSQFNTNLFEGDKALVTKFLEINRTLS | not soluble |
